Source: publication PMC11086627, “Substrate displacement of CK1 C-termini regulates kinase specificity” (Science Advances, 2024)
Square brackets hold non-standard residues; d marks the D form. Ends that are not written are not given here. * marks the point of attachment. Biotin = O=C1N[C@H]2[C@H](CS[C@H]2CCCCC(=O)*)N1; pT = C[C@@H](OP(=O)(O)O)[C@H](N)C(=O)O; pS = N[C@@H](COP(=O)(O)O)C(=O)O

How the values were obtained:
Hhp1 Hhp1ΔC, 1-296 = Hhp1 Hhp1ΔC, 1-296 (UniProt P40235); test: biotin-peptide streptavidin bead pull-down; details: reference: unphosphorylated Cter peptide; sites S326,S327,T345,T346,S354,T356
[1] = molecular target: Hhp1 C-terminus (Cter), 297-365 (UniProt P40235); test: equilibrium bead binding, supernatant depletion; details: reference: wild-type Hhp1ΔC; sites T221,T222
CK1ε CK1εΔC, 1-294 = CK1ε CK1εΔC, 1-294 (UniProt P49674); test: biotin-peptide streptavidin bead pull-down; details: reference: unphosphorylated EC peptide; sites S389,S390,S391,S405,T407,S408
[2] = molecular target: MBP-Hhp1ΔC (Hhp1 amino acids 1 to 296) (S. pombe) (UniProt P40235); test: pull-down; competitive equilibrium binding assay: as the equilibrium binding assay on peptide beads, with 25 μM substrate (casein or Rec11) added along with the kinase; fit constrained to Bmax = 1 for the apparent Kd; Ki from Kd(app)=Kd(1+[I]/Ki)
[3] = molecular target: Hhp1 Cter-6P peptide (amino acids 297 to 365 of Hhp1, phosphorylated at six sites, biotin-conjugated) (S. pombe) (UniProt P40235); test: pull-down; equilibrium binding assay: peptide-conjugated streptavidin beads at 0 to 847 μM peptide incubated with 100 ng of MBP-Hhp1ΔC in binding buffer [50 mM tris (pH 7.0), 25 mM NaCl, 1 mM EDTA, 1 mM DTT], 1 hour at 4°C; unbound kinase in the supernatant by Western blot and densitometry; one-site specific binding fit
[4] = molecular target: Hhp1 Cter-6P peptide (amino acids 297 to 365 of Hhp1, phosphorylated at six sites, biotin-conjugated) (S. pombe) (UniProt P40235); test: pull-down; competitive equilibrium binding assay: as the equilibrium binding assay on peptide beads, with 25 μM substrate (casein or Rec11) added along with the kinase; fit constrained to Bmax = 1 for the apparent Kd; Ki from Kd(app)=Kd(1+[I]/Ki)
MBP-Hhp1ΔC-VV = molecular target: T1, MBP-Hhp1ΔC-VV (S. pombe, UniProt P40235 1-296)
T1 chain: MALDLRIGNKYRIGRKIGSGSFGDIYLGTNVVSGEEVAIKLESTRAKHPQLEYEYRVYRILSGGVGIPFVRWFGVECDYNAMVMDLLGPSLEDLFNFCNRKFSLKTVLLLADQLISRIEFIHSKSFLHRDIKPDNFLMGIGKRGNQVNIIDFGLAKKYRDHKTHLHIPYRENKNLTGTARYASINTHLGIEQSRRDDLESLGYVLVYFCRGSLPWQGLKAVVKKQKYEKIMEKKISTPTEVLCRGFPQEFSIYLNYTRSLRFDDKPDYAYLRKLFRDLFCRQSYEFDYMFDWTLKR

MBP-CK1εΔC-T220N = molecular target: T2, MBP-CK1εΔC-T220N (human, UniProt P49674 1-294, T220N); test: pull-down; biotin peptide on streptavidin sepharose (500 μM peptide) incubated with 2 μg of MBP-kinaseΔC in binding buffer [50 mM tris (pH 7.0), 25 mM NaCl, 1 mM EDTA, 1 mM DTT], 1 hour at 4°C; beads blocked in 5% BSA; bound protein detected by Western blot with anti-MBP; details: both partners purified
T2 construct: human CK1ε, amino acids 1-294, kinase domain autophosphorylation site T220 mutated; source: E. coli Rosetta2(DE3)pLysS, purified (amylose beads, eluted with maltose)
T2 sequence (looked up): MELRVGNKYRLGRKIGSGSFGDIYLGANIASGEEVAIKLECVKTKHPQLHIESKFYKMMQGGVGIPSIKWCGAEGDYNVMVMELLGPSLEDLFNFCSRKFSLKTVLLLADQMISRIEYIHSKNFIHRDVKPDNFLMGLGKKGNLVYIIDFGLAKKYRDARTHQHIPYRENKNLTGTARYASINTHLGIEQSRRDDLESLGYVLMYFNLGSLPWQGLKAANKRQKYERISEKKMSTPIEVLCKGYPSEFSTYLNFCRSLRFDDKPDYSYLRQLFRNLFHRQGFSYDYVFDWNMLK

[5] = molecular target: MBP-CK1εΔC (human CK1ε amino acids 1-294) (human) (UniProt P49674); test: ITC; Nano-ITC, 25°C, 10 mM NaPO4 (pH 7.5), 150 mM NaCl, 0.25 mM TCEP; cell: 100 μM MBP-Hhp1ΔC or MBP-CK1εΔC; syringe: 2 mM peptide; single-site binding model; duplicate
[6] = molecular target: MBP-Hhp1ΔC (Hhp1 amino acids 1 to 296) (S. pombe) (UniProt P40235); test: as above
[7] = molecular target: T3, MBP-Hhp1ΔC (Hhp1 amino acids 1 to 296) (S. pombe, UniProt P40235 1-296); test: apparent, in the presence of 25 uM Rec11
T3 chain: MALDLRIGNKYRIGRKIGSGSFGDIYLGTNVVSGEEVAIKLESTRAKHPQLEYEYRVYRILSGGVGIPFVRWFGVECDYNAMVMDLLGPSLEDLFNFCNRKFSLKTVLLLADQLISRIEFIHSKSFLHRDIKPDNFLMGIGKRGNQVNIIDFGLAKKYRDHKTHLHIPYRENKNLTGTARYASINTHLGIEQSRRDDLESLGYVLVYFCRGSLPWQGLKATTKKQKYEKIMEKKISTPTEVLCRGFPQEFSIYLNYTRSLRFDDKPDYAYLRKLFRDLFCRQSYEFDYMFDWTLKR

[8] = molecular target: T3, MBP-Hhp1ΔC (Hhp1 amino acids 1 to 296); test: ITC; second replicate
[9] = molecular target: T4, MBP-Hhp1ΔC (Hhp1 amino acids 1 to 296) (S. pombe, UniProt P40235 1-296); test: pull-down; competitive equilibrium binding assay: as the equilibrium binding assay on peptide beads, with 25 μM substrate (casein or Rec11) added along with the kinase; fit constrained to Bmax = 1 for the apparent Kd; Ki from Kd(app)=Kd(1+[I]/Ki); details: both partners purified
T4 construct: Hhp1, CK1 enzyme of Schizosaccharomyces pombe, C-terminally truncated, amino acids 1-296; cDNA cloned into pMAL-C2; also called Hhp1-delC; Hhp1 kinase domain; source: E. coli Rosetta2(DE3)pLysS, purified (amylose beads, eluted with maltose)
T4 sequence (looked up): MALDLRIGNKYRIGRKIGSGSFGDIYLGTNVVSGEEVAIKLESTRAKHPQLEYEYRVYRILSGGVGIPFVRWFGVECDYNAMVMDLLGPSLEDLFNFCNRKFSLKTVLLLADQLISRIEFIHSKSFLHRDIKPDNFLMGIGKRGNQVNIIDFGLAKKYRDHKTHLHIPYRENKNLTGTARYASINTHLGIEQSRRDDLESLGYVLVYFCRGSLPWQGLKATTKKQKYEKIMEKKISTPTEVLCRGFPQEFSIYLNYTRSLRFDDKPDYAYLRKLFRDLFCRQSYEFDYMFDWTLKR

Chain of CK1ε CK1εΔC, 1-294 (P49674 383-416, stated change not applied): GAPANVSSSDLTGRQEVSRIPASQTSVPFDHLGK
Chain of MBP-CK1εΔC (human CK1ε amino acids 1-294) (human) (P49674 1-294, stated change not applied): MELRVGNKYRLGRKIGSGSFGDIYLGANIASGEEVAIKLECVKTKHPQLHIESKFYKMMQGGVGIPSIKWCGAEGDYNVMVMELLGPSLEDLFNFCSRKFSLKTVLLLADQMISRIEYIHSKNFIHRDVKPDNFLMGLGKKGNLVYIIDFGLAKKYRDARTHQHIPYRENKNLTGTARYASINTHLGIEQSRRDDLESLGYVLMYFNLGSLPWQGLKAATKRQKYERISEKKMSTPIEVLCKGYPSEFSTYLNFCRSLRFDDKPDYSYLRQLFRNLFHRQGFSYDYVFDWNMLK

Molecule: Hhp1 C-terminus (Cter), 297-365 (from UniProt P40235) Cter-6P peptide
- binding against the reference (Hhp1 Hhp1ΔC, 1-296): gained

Molecule: Hhp1 Hhp1ΔC, 1-296 (from UniProt P40235) Hhp1ΔC-VV
- binding against the reference [1]: gained

Molecule: CK1ε extreme C-terminus (EC), 383-416 (from UniProt P49674) EC-6P peptide
- binding against the reference (CK1ε CK1εΔC, 1-294): gained

Molecule: dephosphorylated alpha casein (natural protein)
- Ki [2]: 14 µM

Molecule: MBP-Hhp1ΔC (Hhp1 amino acids 1 to 296) (from UniProt P40235 1-296) (domain or fragment)
- Kd [3]: 240 µM
- Kd(app) in the presence of 25 μM casein [4]: 658 µM

B1: Hhp1 Cter peptide (amino acids 297 to 365 of Hhp1, unphosphorylated, biotin-conjugated) (peptide)
peptide: Biotin-KTQQDQQHQQQLQQQLSATPQAINPPPERSSFRNYQKQNFDEKGGDINTTVPVINDPSATGAQYINRPN
- Kd (MBP-Hhp1ΔC-VV): 269 µM

B2: CK1ε EC-6P peptide (amino acids 383 to 416 of CK1ε, phosphorylated at six sites, biotin-conjugated) (peptide, UniProt P49674 383-416, looked up)
peptide: Biotin-GAPANV[pS][pS][pS]DLTGRQEVSRIPA[pS]Q[pT][pS]VPFDHLGK
notes: human CK1ε, final 34 amino acids, 383-416; source: synthetic peptide (LifeTein LLC)
- binding result (MBP-CK1εΔC-T220N): binds
- Kd [5]: 343 µM

B3: Hhp1 Cter-6P peptide (amino acids 297 to 365 of Hhp1, phosphorylated at six sites, biotin-conjugated) (peptide)
peptide: Biotin-KTQQDQQHQQQLQQQLSATPQAINPPPER[pS][pS]FRNYQKQNFDEKGGDIN[pT][pT]VPVINDP[pS]A[pT]GAQYINRPN
- Kd [6]: 335 µM
- Kd [7]: 425 µM
- Kd [8]: 283 µM

B4: GST-Rec11-N3 (N terminus of Rec11, amino acids 1-33) (domain or fragment, UniProt Q92380 1-33, looked up)
chain: MRFEFESDASSHLNEVLTELESVELENVEYEGP
notes: Rec11, physiological Hhp1 substrate involved in meiosis, N terminus, amino acids 1-33; source: expressed and purified as previously described (16)
- Ki [9]: 32 µM
